Laboratory results as given in the supplement of paper PMC10567573.

B1: ATE1 (parent)
chain: YGSFHQQYWLDGKIIAVGVIDILP

Variants of: B1
Experiment: protein stability index of a GFP-peptide fusion (GPS, HEK-293T) (PSI 1-6); higher = more stable
Conditions: c terminus: a fixed tail appended
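Further: lentivirally expressed fusions sorted by FACS into six bins by GFP to DsRed ratio, PSI derived from sequencing read proportions per bin multiplied by bin number.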

Protein stability index, by site and new letter:
Y8: I 3.92 | K 2.35 | N 3.57 | P 2.93 | Q 3.04 | W 2.58
W9: A 2.18 | C 2.17 | D 2.53 | E 2.26 | H 3.06 | I 3.29 | K 3.09 | L 3.27 | M 1.98 | N 1.9 | P 3.09 | Q 1.69 | R 3.46 | S 2.48 | V 3.47 | Y 2.97
L10: C 2.9 | D 2.64 | E 2.75 | H 2.42 | I 3.3 | K 3.17 | M 2.16 | N 3.14 | P 3.12 | Q 3.96 | R 2.32 | S 3.74 | T 1.74 | V 3.17 | W 2.66 | Y 1.97
D11: A 4.43 | F 3.33 | G 1.06 | H 2.8 | I 2.1 | K 3.39 | N 3.47 | P 2.24 | S 2.47 | T 3.15 | V 2.38 | W 2.72
G12: A 2.54 | C 2.02 | D 2.68 | I 3.89 | K 2.14 | N 2.45 | Q 2.45 | R 3.98 | S 1.91 | T 3.42 | V 2.04
K13: A 2.3 | C 2.44 | D 2.19 | E 2.45 | F 2.76 | I 1.1 | L 3.1 | M 3.74 | N 2.78 | P 2.99 | R 2 | T 2.54 | V 2.63 | W 1.94
I14: A 3.24 | C 2.81 | E 2.66 | G 2.26 | K 2.41 | M 4.33 | N 4.29 | P 2.95 | Q 2.72 | S 1.85 | T 2.75 | W 2.62 | Y 1.49
I15: A 2.57 | C 1.53 | D 2.53 | E 3.12 | F 2.83 | G 3.26 | H 3.57 | K 1.79 | L 2.75 | M 2.51 | N 2.59 | R 1.91 | S 2.5 | T 3.23 | V 4.05 | Y 2.45
A16: C 1.6 | F 2.21 | G 2.13 | M 2 | P 2.38 | Q 3.07 | R 3.32 | S 1.87 | T 2.7 | V 3.31 | Y 2.13
V17: A 3.66 | C 3.27 | D 2.26 | F 4.21 | H 3.08 | I 1.95 | L 2.42 | M 3.42 | N 2.82 | P 1.66 | R 3.21 | T 3.29 | W 3 | Y 2.91
G18: A 3.13 | C 4.11 | E 2.28 | F 2.53 | I 3.47 | K 3.6 | L 1.9 | N 2.31 | P 2.39 | Q 3.22 | R 3.77 | S 3.06 | T 4.01 | W 2.81 | Y 1.96
V19: A 2.67 | C 2.56 | D 3.87 | E 1.71 | F 3.06 | I 2.64 | K 1.77 | L 2.41 | M 2.91 | P 3.09 | Q 2.97 | R 2.92 | S 2.97 | T 2.49 | W 2.06 | Y 2.91
I20: A 3.4 | C 1.22 | D 2.41 | E 1.65 | F 4.08 | L 3.46 | M 2.59
